The source of these data is US20160257744A1 (Genentech, published 2016).

The target in assay [1] is T1, interleukin 5 (IL5) (human, UniProt P05113 20-134).
T1 construct: also called human IL5 (R&D Systems)
T1 sequence (looked up): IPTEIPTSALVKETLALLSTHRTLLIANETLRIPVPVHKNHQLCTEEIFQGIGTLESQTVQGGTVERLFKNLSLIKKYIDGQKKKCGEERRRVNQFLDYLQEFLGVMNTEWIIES
In words: phage competition ELISA (phage IC50), soluble IL5 against IL5-coated wells. Here is the method:
(§1) Fab displaying phage was first incubated with serial dilutions of the respective antigens in solution for 2 h, unbound phage was then briefly captured by antigen coated ELISA wells and detected with anti-M13 HRP conjugate. The concentration of antigen inhibiting 50% of phage binding to antigen coated well is calculated as IC₅₀. NB denotes no detectable binding of phage clone directly to the antigens coated wells.
(§2) The relative affinity of each clone was assessed by phage IC₅₀ as above.
On the technique in general: In an ELISA, binding on a coated surface is turned into a signal by an enzyme label.

Assay [2] concerns the target T2, interleukin 4 (IL4) (UniProt P05112 25-153).
T2 sequence (looked up): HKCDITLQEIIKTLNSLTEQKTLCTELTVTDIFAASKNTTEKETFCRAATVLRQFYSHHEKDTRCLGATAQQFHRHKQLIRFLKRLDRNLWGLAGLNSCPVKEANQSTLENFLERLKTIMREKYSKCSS
In words: phage competition ELISA (phage IC50), soluble IL4 against IL4-coated wells. Here is the method:
as §1, §2

The target of assay [3] is T1, interleukin 5 (IL5). In words: ELISA: human IgG1 at 250 nM on protein-coated wells, anti-Fc-HRP.
Assay [4] deals with T3, HER2 ECD.
T3 construct: one of the irrelevant proteins; also called irrelevant protein coated on ELISA wells
The assay is described as above.

Assay [5] concerns the target T4, BSA (bovine, UniProt P02769).
T4 construct: negative control protein; also called irrelevant protein coated on ELISA wells
The assay is described as above.

Assay [6] addresses T1, interleukin 5 (IL5). Nature of the assay: SPR (Biacore), Fab over immobilized human IL5, 25 °C. A general note: Surface plasmon resonance follows binding to a sensor surface in real time, without labels.
In assay [7] the target is T2, interleukin 4 (IL4). In words: phage ELISA, Fab-displaying phage on IL4.
Source text: Anti-gD antibody was directly coated on ELISA wells, whereas IL4 was captured with a non-blocking anti-IL4 antibody coated on ELISA wells.
Assay [8] has as its target T2, interleukin 4 (IL4). In words: phage competition ELISA: Fab-phage incubated 2 h with serial dilutions of the antigen in solution, unbound phage captured on antigen-coated wells, anti-M13-HRP; IC50 = antigen concentration inhibiting 50% of phage binding. As for the experimental part:
as §1

Assay [9] addresses T1, interleukin 5 (IL5). Nature of the assay: phage ELISA: direct binding of the phage clone to antigen-coated wells (NB = no detectable binding).
Assay [10] addresses T5, interleukin 13 (IL13) (UniProt P35225 35-146, limits assumed). Described as above.
Assay [11] addresses T5, interleukin 13 (IL13). Nature of the assay: ELISA: human IgG1 at 250 nM on protein-coated wells, anti-Fc-HRP.
The target of assay [12] is T3, HER2 ECD. In words: ELISA: IgG at 100 nM on immobilized protein, anti-IgG-HRP [panel A].
In assay [13] the target is T4, BSA. The description is as above.
Assay [14] deals with T1, interleukin 5 (IL5). Nature of the assay: phage competition ELISA: Fab-phage incubated 2 h with serial dilutions of the antigen in solution, unbound phage captured on antigen-coated wells, anti-M13-HRP; IC50 = antigen concentration inhibiting 50% of phage binding. Here is the method: as §1
For assay [15], the target named is T2, interleukin 4 (IL4). In words: phage ELISA: direct binding of the phage clone to antigen-coated wells (NB = no detectable binding).
Assay [16] deals with T2, interleukin 4 (IL4). In words: ELISA: human IgG1 at 250 nM on protein-coated wells, anti-Fc-HRP.

T5 sequence (P35225 35-146 limits assumed): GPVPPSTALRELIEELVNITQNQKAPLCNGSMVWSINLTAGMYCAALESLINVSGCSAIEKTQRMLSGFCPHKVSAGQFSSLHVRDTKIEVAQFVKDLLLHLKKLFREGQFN
T4 sequence (P02769 25-607 limits assumed): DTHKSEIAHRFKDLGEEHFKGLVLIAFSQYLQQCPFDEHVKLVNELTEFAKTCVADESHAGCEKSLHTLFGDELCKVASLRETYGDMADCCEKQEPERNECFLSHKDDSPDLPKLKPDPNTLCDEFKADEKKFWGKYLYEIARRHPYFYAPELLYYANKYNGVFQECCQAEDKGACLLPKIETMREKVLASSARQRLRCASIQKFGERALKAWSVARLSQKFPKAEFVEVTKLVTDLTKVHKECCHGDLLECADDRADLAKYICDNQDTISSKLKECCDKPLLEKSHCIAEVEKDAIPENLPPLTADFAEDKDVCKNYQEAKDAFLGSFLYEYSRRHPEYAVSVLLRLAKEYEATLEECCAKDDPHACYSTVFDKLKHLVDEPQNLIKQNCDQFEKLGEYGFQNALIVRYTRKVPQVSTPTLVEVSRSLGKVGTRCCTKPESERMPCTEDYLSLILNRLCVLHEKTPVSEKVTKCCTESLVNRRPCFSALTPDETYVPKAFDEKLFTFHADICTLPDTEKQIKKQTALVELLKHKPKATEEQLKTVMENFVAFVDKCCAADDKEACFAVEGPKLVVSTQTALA

B1: 1C.36 (Fab, V domains shown)
VH: EVQLVQSGAEVKKPGASVKVSCKASGYTFTDYFIHWVRQAPGQGLEWIGGIVYDATGFTTYAEEFKGRVTITRDTSTSTAYLELSSLRSEDTAVYYCARGGIFYGMDYWGQGTLVTVSS
VL: DIQMTQSPSSLSASVGDRVTITCKASQSVINDAAWYQQKPGKAPKLLIYYTSHRYTGVPSRFSGSGSGTDFTLTISSLQEDFATYYCQQDYTHPWTFGQGTKVEIKR
notes: same clone as m16 and m18, here in the phage format
For orientation: IC50 means the concentration that inhibits the measured activity by half. A higher IC50 goes with lower potency. Consider B1, for which the values for the IC50 in assay [1] and in [2] were 0.9 nM and 2.1 nM, respectively.

B2: F2 as human IgG1 (antibody, V domains shown)
VH: EVQLVQSGAEVKKPGASVKVSCKASGYTFTDYSMHWVRQAPGQGLEWIGIIFYTGHTYYADDFKGRVTITRDTSTSTAYLELSSLRSEDTAVYYCARGGIFYGMDYWGQGTLVTVSS
VL: DIQMTQSPSSLSASVGDRVTITCKASQSVINDAAWYQQKPGKAPKLLIYYTSHRYTGVPSRFSGSGSGTDFTLTISSLQEDFATYYCQQDYTSPWTFGQGTKVEIKR
Turning to B2, the binding result in assay [3], in assay [4] and in assay [5] was “no binding (tested: 250 nM)” throughout.

B3: E7 purified as Fab (Fab, V domains shown)
VH: EVQLVQSGAEVKKPGASVKVSCKASGYTFTDYFIHWVRQAPGQGLEWIAGIVYDATGFTTYADDFKGRVTITRDTSTSTAYLELSSLRSEDTAVYYCARGGIFYGMDYWGQGTLVTVSS
VL: DIQMTQSPSSLSASVGDRVTITCKASQSVINDAAWYQQKPGKAPKLLIYYTSHRYTGVPSRFSGSGSGTDFTLTISSLQEDFATYYCQQDYTSPWTFGQGTKVEIKR
notes: also called IL4/IL5 dual specific clone E7
Usually Kd stands for the free concentration of one partner at which half of the binding sites on the other are occupied at equilibrium, for simple one-to-one binding. A high value points to a looser complex. Consider B3, for which the dissociation constant Kd in assay [6] came out at 905 nM.

B4: humanized antibody 19C11 (hu19C11) wild-type Fab displayed on M13 phage (Fab, V domains shown)
VH: EVQLVQSGAEVKKPGASVKVSCKASGYTFTDYSMHWVRQAPGQGLEWIVWINTETGEPTYADDFKGRVTITRDTSTSTAYLELSSLRSEDTAVYYCARGGIFYGMDYWGQGTLVTVSS
VL: DIQMTQSPSSLSASVGDRVTITCKASQSVINDAAWYQQKPGKAPKLLIYYTSHRYTGVPSRFSGSGSGTDFTLTISSLQEDFATYYCQQDYTSPWTFGQGTKVEIKR
notes: Phagemid pV0115: light chain with gD expression tag fused to its C-terminus; VH-CH1 followed by hinge piece KTHTC and M13 minor coat protein p3 (bivalent Fab display); Humanized in germline VH1 / kappa I backbone; also called hu19C11 wt; Fab-displaying phage
For orientation: EC50 means the concentration that produces a half-maximal response. A high value points to weaker potency. In [7], B4 registered an EC50 of 1 nM. For the same molecule, the half-inhibitory concentration (IC50) in assay [8] is 1.1 nM. In addition, the binding result in assay [9] and in assay [10] was “no binding” in each case.

B5: humanized antibody 19C11 (hu19C11) as IgG (antibody, V domains shown)
VH: EVQLVQSGAEVKKPGASVKVSCKASGYTFTDYSMHWVRQAPGQGLEWIVWINTETGEPTYADDFKGRVTITRDTSTSTAYLELSSLRSEDTAVYYCARGGIFYGMDYWGQGTLVTVSS
VL: DIQMTQSPSSLSASVGDRVTITCKASQSVINDAAWYQQKPGKAPKLLIYYTSHRYTGVPSRFSGSGSGTDFTLTISSLQEDFATYYCQQDYTSPWTFGQGTKVEIKR
notes: IgG; also called the antibody as IgG
On to B5, for which the binding result in assay [3], in [4], in [5] and in assay [11] was “no binding (tested: 250 nM)” each time.

B6: 1C36, affinity-matured variant of E7, as IgG (antibody, V domains shown)
VH: EVQLVQSGAEVKKPGASVKVSCKASGYTFTDYFIHWVRQAPGQGLEWIGGIVYDATGFTTYAEEFKGRVTITRDTSTSTAYLELSSLRSEDTAVYYCARGGIFYGMDYWGQGTLVTVSS
VL: DIQMTQSPSSLSASVGDRVTITCKASQSVINDAAWYQQKPGKAPKLLIYYTSHRYTGVPSRFSGSGSGTDFTLTISSLQEDFATYYCQQDYTHPWTFGQGTKVEIKR
With B6, the binding result in assay [12] and in [13] was “no binding (tested: 100 nM)” throughout.

B7: 1C.60 (Fab, V domains shown)
VH: EVQLVQSGAEVKKPGASVKVSCKASGYTFTDYFIHWVRQAPGQGLEWIAGIVYDATGFTVYADDFKGRVTITRDTSTSTAYLELSSLRSEDTAVYYCARGGIFYGMDYWGQGTLVTVSS
VL: DIQMTQSPSSLSASVGDRVTITCKASQSVINDAAWYQQKPGKAPKLLIYYTSHRYTGVPSRFSGSGSGTDFTLTISSLQEDFATYYCQQDYKHPWTFGQGTKVEIKR
notes: same clone as m17 and m19, here in the phage format
Regarding B7, the 50% inhibitory concentration (IC50) in assay [1] is 3.67 nM; in assay [2], 1.1 nM.

B8: 5A, anti-IL5 specific variant of hu19C11, Fab displayed on phage (Fab, V domains shown)
VH: EVQLVQSGAEVKKPGASVKVSCKASGYTFTDYDIHWVRQAPGQGLEWIVWINTETGEPTYADDFKGRVTITRDTSTSTAYLELSSLRSEDTAVYYCAREILFYGMDYWGQGTLVTVSS
VL: DIQMTQSPSSLSASVGDRVTITCKASQSVINDAAWYQQKPGKAPKLLIYYTSHRYTGVPSRFSGSGSGTDFTLTISSLQEDFATYYCQQDYTSPWTFGQGTKVEIKR
notes: also called clone 5A
B8: in [14], the concentration for half-maximal inhibition (IC50) was roughly 1000 nM. In addition, the binding result in assay [15] and in assay [10] was “no binding” in each case.

B9: 1C60, affinity-matured variant of E7, as IgG (antibody, V domains shown)
VH: EVQLVQSGAEVKKPGASVKVSCKASGYTFTDYFIHWVRQAPGQGLEWIAGIVYDATGFTVYADDFKGRVTITRDTSTSTAYLELSSLRSEDTAVYYCARGGIFYGMDYWGQGTLVTVSS
VL: DIQMTQSPSSLSASVGDRVTITCKASQSVINDAAWYQQKPGKAPKLLIYYTSHRYTGVPSRFSGSGSGTDFTLTISSLQEDFATYYCQQDYKHPWTFGQGTKVEIKR
Turning to B9, the binding result in assay [12] and in assay [13] was “no binding (tested: 100 nM)” in each case.

B10: 5A as human IgG1 (antibody, V domains shown)
VH: EVQLVQSGAEVKKPGASVKVSCKASGYTFTDYDIHWVRQAPGQGLEWIVWINTETGEPTYADDFKGRVTITRDTSTSTAYLELSSLRSEDTAVYYCAREILFYGMDYWGQGTLVTVSS
VL: DIQMTQSPSSLSASVGDRVTITCKASQSVINDAAWYQQKPGKAPKLLIYYTSHRYTGVPSRFSGSGSGTDFTLTISSLQEDFATYYCQQDYTSPWTFGQGTKVEIKR
With B10, the binding result in [4], in assay [16], in assay [5] and in [11] was “no binding (tested: 250 nM)” each time.
